The numbers were not newly measured in PMC3937454, which cites them from elsewhere.

As usually defined, the pKa is the negative logarithm of the acid dissociation constant.

For data set [1], the target named is Lys143 (UniProt position 161, ASHLRKLRKRL). Particulars: not stated (lipid-free or lipid-bound state not specified for the quoted values).
Data set [2] deals with Lys146 (UniProt position 164, LRKLRKRLLRD). Particulars: not stated (lipid-free or lipid-bound state not specified for the quoted values).

Take “Apolipoprotein E3 (apoE3) (Homo sapiens)”: the pKa is listed as 9.5 in data set [1] and 9.2 in data set [2].
